Experimental data taken from the supplement of paper PMC10065799, “High-throughput profiling of sequence recognition by tyrosine kinases and SH2 domains using bacterial peptide display” (eLife, 2023).

How the values were obtained:
AncSZ = test: phosphorylation enrichment, bacterial display (enrichment ratio); higher = better substrate or ligand; peptides without Tyr show the background
EPHB1 = EPHB1 (UniProt P54762); test: as above
EPHB2 = EPHB2 (UniProt P29323); test: as above
FGFR1 = FGFR1 (UniProt P11362); test: as above
FGFR3 = FGFR3 (UniProt P22607); test: as above
Fer (mouse) = test: as above
Fes = Fes (UniProt P07332); test: as above
Fyn = Fyn (UniProt P06241); test: as above
Hck = Hck (UniProt P08631); test: as above
Jak2 = Jak2 (UniProt O60674); test: as above
MERTK = MERTK (UniProt Q12866); test: as above
c-Abl (mouse) = test: as above
c-Src = test: as above
Grb2 SH2 = Grb2 SH2 (UniProt P62993); test: SH2 binding enrichment of the phosphorylated peptide, bacterial display (enrichment ratio); higher = better substrate or ligand; peptides without Tyr show the background
SHP2-C SH2 = test: as above
c-Src SH2 = test: as above
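Throughout, for SH2 binding enrichment of the phosphorylated peptide, bacterial display: peptide library displayed on the E. coli surface as eCPX fusions, selected cells deep-sequenced, score is each peptide's frequency after selection divided by its frequency in the input.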
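Throughout, for phosphorylation enrichment, bacterial display: 11-residue human phosphosite peptides and single-mutation variants displayed on the E. coli surface, counted by deep sequencing, each peptide's frequency after selection divided by its frequency in the unselected input library; frequency after pTyr selection over input frequency; kinase dosed for 20-30% of maximal phosphorylation in three min.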

FGFR1, sequence (P11362 whole entry, looked up): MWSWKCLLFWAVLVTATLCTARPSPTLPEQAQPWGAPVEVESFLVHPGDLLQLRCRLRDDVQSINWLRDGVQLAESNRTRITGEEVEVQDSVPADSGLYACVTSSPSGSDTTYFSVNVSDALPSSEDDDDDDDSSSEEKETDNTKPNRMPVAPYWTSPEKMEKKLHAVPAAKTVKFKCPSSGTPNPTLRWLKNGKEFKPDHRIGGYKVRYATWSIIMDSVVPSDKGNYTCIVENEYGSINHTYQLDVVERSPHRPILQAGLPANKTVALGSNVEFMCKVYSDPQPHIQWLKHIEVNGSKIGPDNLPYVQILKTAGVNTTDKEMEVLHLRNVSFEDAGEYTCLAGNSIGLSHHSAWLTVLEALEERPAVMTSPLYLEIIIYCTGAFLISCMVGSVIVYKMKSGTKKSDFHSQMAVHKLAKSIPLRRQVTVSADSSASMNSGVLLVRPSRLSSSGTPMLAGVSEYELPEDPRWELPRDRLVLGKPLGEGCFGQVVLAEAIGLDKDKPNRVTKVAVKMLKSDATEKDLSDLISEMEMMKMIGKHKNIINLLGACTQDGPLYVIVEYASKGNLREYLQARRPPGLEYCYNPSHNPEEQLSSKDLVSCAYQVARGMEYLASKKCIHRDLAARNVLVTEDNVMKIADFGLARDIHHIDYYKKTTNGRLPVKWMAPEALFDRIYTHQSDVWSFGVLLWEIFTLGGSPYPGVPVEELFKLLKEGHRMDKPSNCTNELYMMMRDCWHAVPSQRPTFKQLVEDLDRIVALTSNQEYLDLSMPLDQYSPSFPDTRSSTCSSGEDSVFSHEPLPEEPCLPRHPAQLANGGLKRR
EPHB2, sequence (P29323 whole entry, looked up): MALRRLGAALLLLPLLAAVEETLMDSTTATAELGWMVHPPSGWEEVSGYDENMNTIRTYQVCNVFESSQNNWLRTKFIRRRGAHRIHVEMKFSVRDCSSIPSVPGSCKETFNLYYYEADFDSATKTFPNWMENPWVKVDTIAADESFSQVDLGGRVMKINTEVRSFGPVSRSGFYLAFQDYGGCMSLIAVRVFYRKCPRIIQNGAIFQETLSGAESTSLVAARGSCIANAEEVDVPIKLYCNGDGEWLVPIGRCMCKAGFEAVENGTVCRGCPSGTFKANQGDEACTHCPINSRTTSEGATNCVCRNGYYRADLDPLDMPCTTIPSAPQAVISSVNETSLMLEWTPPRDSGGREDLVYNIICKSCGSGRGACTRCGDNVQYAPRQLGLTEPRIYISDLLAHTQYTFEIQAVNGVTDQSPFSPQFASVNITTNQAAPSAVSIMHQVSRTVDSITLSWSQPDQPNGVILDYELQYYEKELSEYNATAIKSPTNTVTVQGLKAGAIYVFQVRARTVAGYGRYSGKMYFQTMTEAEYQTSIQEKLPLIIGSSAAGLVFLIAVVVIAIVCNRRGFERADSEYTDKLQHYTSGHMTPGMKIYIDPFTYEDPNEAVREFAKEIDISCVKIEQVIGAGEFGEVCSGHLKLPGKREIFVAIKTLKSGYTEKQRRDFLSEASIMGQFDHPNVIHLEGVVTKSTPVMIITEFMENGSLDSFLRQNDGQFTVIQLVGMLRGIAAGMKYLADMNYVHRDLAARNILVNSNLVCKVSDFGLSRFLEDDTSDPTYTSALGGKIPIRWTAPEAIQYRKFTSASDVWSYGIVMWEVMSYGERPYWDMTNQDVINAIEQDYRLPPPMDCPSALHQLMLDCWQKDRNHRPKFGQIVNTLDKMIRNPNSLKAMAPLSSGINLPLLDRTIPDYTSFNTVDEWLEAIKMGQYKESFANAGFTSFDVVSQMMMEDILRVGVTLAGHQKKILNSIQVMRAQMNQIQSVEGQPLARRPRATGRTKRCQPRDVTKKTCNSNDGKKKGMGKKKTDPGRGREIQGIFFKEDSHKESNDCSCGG
FGFR3, sequence (P22607 whole entry, looked up): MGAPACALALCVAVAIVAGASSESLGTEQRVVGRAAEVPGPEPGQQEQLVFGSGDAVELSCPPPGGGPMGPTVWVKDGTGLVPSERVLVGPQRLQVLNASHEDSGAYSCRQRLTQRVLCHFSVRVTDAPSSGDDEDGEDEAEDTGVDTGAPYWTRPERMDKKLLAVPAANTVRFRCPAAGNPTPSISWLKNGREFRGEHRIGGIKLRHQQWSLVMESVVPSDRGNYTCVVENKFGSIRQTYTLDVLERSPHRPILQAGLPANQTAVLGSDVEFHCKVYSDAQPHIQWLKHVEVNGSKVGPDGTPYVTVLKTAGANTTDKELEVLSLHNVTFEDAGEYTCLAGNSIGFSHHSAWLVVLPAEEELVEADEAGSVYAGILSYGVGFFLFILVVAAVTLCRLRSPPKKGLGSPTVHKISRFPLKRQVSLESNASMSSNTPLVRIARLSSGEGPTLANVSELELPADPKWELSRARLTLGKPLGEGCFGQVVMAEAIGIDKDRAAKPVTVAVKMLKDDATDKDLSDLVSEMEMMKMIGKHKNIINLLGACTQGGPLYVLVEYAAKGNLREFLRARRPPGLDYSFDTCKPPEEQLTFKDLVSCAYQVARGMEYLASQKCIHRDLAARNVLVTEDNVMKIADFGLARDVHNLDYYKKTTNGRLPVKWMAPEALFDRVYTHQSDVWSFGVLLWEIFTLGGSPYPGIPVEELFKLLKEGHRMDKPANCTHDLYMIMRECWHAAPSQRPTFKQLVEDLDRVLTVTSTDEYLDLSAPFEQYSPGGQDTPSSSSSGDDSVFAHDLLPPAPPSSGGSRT
Hck, sequence (P08631 whole entry, looked up): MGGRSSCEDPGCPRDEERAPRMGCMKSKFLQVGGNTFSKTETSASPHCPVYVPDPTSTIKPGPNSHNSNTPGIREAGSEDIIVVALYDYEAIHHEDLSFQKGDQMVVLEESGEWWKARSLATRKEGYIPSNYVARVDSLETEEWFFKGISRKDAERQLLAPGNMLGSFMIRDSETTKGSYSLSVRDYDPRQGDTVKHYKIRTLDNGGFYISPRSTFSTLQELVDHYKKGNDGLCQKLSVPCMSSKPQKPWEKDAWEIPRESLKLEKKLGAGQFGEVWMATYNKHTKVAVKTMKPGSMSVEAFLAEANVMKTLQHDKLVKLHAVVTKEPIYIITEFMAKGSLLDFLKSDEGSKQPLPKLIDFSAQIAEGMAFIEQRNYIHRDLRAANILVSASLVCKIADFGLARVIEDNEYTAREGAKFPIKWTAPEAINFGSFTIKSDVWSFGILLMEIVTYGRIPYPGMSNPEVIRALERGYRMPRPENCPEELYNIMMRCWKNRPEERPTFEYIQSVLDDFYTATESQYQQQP
Fyn, sequence (P06241 whole entry, looked up): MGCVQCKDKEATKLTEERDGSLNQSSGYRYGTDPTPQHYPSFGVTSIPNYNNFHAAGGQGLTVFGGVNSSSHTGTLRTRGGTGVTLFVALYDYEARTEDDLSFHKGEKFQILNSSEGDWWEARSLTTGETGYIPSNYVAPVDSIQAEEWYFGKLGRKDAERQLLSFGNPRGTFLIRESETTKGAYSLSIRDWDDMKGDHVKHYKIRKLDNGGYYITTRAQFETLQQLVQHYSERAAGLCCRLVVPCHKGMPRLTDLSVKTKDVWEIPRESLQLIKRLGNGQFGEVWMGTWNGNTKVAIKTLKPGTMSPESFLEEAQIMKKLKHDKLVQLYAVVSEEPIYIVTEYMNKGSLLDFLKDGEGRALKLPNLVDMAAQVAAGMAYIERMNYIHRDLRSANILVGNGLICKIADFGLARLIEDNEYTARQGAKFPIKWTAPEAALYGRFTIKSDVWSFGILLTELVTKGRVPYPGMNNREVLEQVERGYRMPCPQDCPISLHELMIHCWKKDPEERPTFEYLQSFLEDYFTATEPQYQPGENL
EPHB1, sequence (P54762 whole entry, looked up): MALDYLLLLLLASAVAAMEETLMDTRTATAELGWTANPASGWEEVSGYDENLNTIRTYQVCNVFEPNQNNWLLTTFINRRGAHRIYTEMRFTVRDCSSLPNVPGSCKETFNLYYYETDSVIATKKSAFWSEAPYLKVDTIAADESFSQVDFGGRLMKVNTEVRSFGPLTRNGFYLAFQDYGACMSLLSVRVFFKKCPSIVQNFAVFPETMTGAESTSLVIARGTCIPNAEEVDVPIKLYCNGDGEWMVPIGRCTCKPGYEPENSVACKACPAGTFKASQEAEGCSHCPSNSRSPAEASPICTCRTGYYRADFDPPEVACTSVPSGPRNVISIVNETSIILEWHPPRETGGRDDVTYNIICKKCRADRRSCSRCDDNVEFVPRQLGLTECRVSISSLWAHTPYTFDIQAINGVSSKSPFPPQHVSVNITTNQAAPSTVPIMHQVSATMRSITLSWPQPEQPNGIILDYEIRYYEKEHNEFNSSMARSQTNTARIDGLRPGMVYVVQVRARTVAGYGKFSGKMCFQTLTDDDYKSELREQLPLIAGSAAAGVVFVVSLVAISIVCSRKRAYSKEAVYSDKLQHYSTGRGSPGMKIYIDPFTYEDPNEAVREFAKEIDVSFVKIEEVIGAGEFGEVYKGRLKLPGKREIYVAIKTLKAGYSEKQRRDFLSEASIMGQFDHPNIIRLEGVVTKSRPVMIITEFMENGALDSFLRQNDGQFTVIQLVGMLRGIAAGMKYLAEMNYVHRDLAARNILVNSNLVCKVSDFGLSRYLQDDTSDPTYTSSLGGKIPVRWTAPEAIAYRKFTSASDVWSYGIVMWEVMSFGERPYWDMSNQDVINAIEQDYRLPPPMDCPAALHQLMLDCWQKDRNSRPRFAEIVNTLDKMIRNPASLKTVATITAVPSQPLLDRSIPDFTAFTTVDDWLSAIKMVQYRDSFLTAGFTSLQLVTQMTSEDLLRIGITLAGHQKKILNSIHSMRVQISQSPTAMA
Grb2 SH2, sequence (P62993 whole entry, looked up): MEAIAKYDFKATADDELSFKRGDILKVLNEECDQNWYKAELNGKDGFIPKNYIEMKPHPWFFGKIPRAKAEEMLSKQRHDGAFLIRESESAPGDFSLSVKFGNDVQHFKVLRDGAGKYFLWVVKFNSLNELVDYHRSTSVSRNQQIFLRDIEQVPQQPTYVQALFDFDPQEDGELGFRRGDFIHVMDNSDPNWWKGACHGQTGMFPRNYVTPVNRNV

Row | Sequence | phosphorylation enrichment (AncSZ) | phosphorylation enrichment (EPHB1) | phosphorylation enrichment (EPHB2) | phosphorylation enrichment (FGFR1) | phosphorylation enrichment (FGFR3) | phosphorylation enrichment (Fer (mouse)) | phosphorylation enrichment (Fes) | phosphorylation enrichment (Fyn) | phosphorylation enrichment (Hck) | phosphorylation enrichment (Jak2) | phosphorylation enrichment (MERTK) | phosphorylation enrichment (c-Abl (mouse)) | phosphorylation enrichment (c-Src) | SH2 binding enrichment (Grb2 SH2) | SH2 binding enrichment (SHP2-C SH2) | SH2 binding enrichment (c-Src SH2)
1 | IDAVCYFRMEN [NPHS2_Y194_I192V_YF] | 1.79 | 0.788 | 0.763 | 0.986 | 1.34 | 0.641 | 1.99 | 0.653 | 0.903 | 2.74 | 0.715 | 1.5 | 0.873 | 0.764 | 0.607 | 0.545
2 | IDSTPYGQWFE [RPS8_Y109_R110G_YF] | 1.27 | 0.621 | 0.722 | 0.713 | 0.89 | 0.712 | 1.18 | 3.54 | 1.52 | 0.998 | 0.473 | 0.657 | 3.56 | 0.821 | 0.697 | 0.561
3 | IEEGTYGVAYR [CDK11B_Y449_V452A] | 1.24 | 0.686 | 2.44 | 0.494 | 0.635 | 5.71 | 1 | 7.54 | 5.91 | 0.928 | 2.22 | 0.836 | 5.77 | 0.681 | 0.662 | 0.471
4 | IEEGTYGVVFR [CDK11B_Y449_YF] | 1.41 | 2.76 | 7.66 | 0.548 | 0.961 | 6.28 | 1.48 | 8.86 | 7.46 | 1.38 | 3.13 | 1.2 | 5.94 | 0.722 | 0.467 | 0.349
5 | IEEGTYGVVYR [CDK11B_Y449] | 1.33 | 4.1 | 10.8 | 0.509 | 0.702 | 7.46 | 1.01 | 8.95 | 7.29 | 0.902 | 4 | 1.3 | 5.65 | 0.834 | 0.668 | 0.451
6 | IETGRYEILTE | 1.07 | 0.595 | 0.762 | 0.491 | 0.632 | 0.464 | 1 | 0.488 | 0.487 | 0.951 | 0.533 | 0.854 | 0.479 | 0.883 | 0.697 | 21.6
7 | IFGEEYEEQPR [ZMYM2_Y1033_V1028I] | 1.47 | 0.663 | 0.647 | 0.611 | 0.849 | 0.721 | 1.28 | 0.535 | 0.608 | 1.16 | 0.451 | 0.662 | 0.591 | 0.819 | 0.77 | 0.561
8 | IGEGTYGVLYK [CDK2_Y15_V18L] | 0.817 | 1.55 | 2.75 | 0.416 | 0.632 | 0.808 | 1.04 | 8.4 | 7.04 | 0.635 | 2.63 | 0.587 | 5.6 | 0.635 | 0.514 | 0.381
9 | IGEGTYGVVFK [CDK2_Y15_YF] | 0.826 | 1.14 | 2.86 | 0.431 | 0.557 | 1.02 | 1.05 | 7.22 | 4.9 | 0.815 | 0.905 | 0.631 | 4.93 | 0.799 | 0.655 | 0.457
10 | IGSQRYKLGVR [RB1_Y446] | 0.447 | 0.336 | 0.332 | 0.369 | 0.364 | 0.322 | 0.426 | 0.332 | 0.31 | 0.436 | 0.306 | 0.41 | 0.356 | 1.16 | 1.4 | 0.798
11 | IIRYNYLLDVL [FGFR4_Y237_S232I] | 0.943 | 0.522 | 0.651 | 0.599 | 0.723 | 0.507 | 2.41 | 0.476 | 0.557 | 1.03 | 0.52 | 0.976 | 0.49 | 1.34 | 1.66 | 2.69
12 | IKNSGYISQYL [EIF2AK3_Y585_R588Q] | 0.593 | 0.414 | 0.375 | 0.443 | 0.458 | 0.323 | 0.783 | 0.427 | 0.39 | 0.617 | 0.374 | 0.435 | 0.406 | 0.939 | 0.969 | 0.628
13 | ILGLEYSLRLP [HELZ2_Y1304_V1308L] | 1.37 | 0.814 | 0.56 | 0.542 | 0.942 | 0.649 | 1.44 | 0.628 | 0.479 | 1.33 | 0.5 | 0.937 | 1.08 | 0.877 | 0.648 | 0.401
14 | ILGRTYYVNHE [NEDD4_Y627] | 0.928 | 0.607 | 0.539 | 0.485 | 0.682 | 0.507 | 0.941 | 0.368 | 0.632 | 0.705 | 0.368 | 0.725 | 0.68 | 6.67 | 2.73 | 1.41
15 | ILKPDYQPLAV [HYDIN_Y1072_I1077V] | 0.817 | 0.409 | 0.42 | 0.475 | 0.667 | 0.387 | 0.828 | 0.48 | 0.456 | 0.617 | 0.448 | 0.73 | 0.418 | 0.731 | 0.8 | 0.509
16 | IMICAYLLHRG [PTEN_Y138_V133I] | 1.3 | 0.617 | 0.687 | 0.534 | 0.77 | 0.827 | 1.35 | 0.709 | 0.525 | 1.23 | 0.536 | 1.19 | 0.566 | 1.23 | 1.16 | 0.695
17 | IMVFVYCRVFQ [ADRB2_Y219_S220C] | 0.729 | 0.424 | 0.488 | 0.841 | 0.632 | 0.435 | 0.836 | 0.51 | 0.473 | 0.699 | 0.449 | 0.63 | 0.395 | 1.41 | 1.1 | 0.768
18 | INASGYRIGPA [ACSM1_Y477] | 0.479 | 0.371 | 0.374 | 0.349 | 0.367 | 0.467 | 0.502 | 0.328 | 0.385 | 0.401 | 0.33 | 0.36 | 0.433 | 0.799 | 0.633 | 0.453
19 | INPIIYAFVGG [CCR5_Y297_E302G] | 1.14 | 11.5 | 9.68 | 4.39 | 3.51 | 6.66 | 2.1 | 6.26 | 6.35 | 1.55 | 8.42 | 14.4 | 5.05 | 0.746 | 0.57 | 0.491
20 | INSLKYAFNIS [EIF2B5_Y583_YF] | 0.722 | 0.438 | 0.475 | 0.451 | 0.567 | 0.385 | 0.818 | 0.311 | 0.424 | 0.809 | 0.349 | 0.632 | 0.379 | 0.944 | 0.833 | 0.44
21 | IPKTWYSAEQF [CD207_Y217] | 0.855 | 3.19 | 3.04 | 0.494 | 0.538 | 0.448 | 0.939 | 0.522 | 0.542 | 0.681 | 9.16 | 0.526 | 0.615 | 0.876 | 0.914 | 0.574
22 | IRCQGYSHRIL [MYO3B_Y993_R990C] | 0.723 | 0.46 | 0.558 | 0.423 | 0.506 | 0.47 | 0.664 | 0.493 | 0.475 | 0.649 | 0.471 | 0.493 | 0.523 | 0.925 | 0.915 | 0.824
23 | IRSGIYFKPES [L2HGDH_Y102_H98R_YF] | 0.913 | 0.63 | 0.687 | 0.542 | 0.625 | 0.467 | 0.95 | 0.768 | 0.786 | 1.19 | 4.3 | 2.88 | 0.673 | 0.776 | 1.13 | 0.642
24 | ISRDVYSTDYY [NTRK2_Y702_M697I] | 1.83 | 2.43 | 2.51 | 4.9 | 3.13 | 0.703 | 1.04 | 3.34 | 1.95 | 1.12 | 6.57 | 0.69 | 4.67 | 0.745 | 0.719 | 0.543
25 | ITGNGYFFRVF [MYBPC3_Y1135_I1131T_YF] | 0.906 | 0.496 | 0.493 | 0.451 | 0.595 | 0.416 | 1.08 | 0.358 | 0.377 | 0.99 | 0.305 | 0.647 | 0.31 | 0.75 | 0.735 | 0.457
26 | IVAREYYSEAD [CAMK2A_Y106] | 1.03 | 0.557 | 0.552 | 0.618 | 0.81 | 0.586 | 1.2 | 0.474 | 0.557 | 1.01 | 0.455 | 0.664 | 0.548 | 0.886 | 0.645 | 3.2
27 | IWIFHYAKGQP [MPZ_Y82_S78W] | 1.26 | 0.578 | 0.498 | 0.348 | 0.768 | 0.459 | 1.55 | 0.49 | 0.411 | 1.28 | 0.446 | 1.09 | 0.577 | 1.18 | 1.55 | 0.795
28 | IYETDYYQKGG [INSR_Y1189_R1191Q] | 1.88 | 1.2 | 0.948 | 1.52 | 1.46 | 1.6 | 1.08 | 1.46 | 1.37 | 0.819 | 4.71 | 0.629 | 1.37 | 0.915 | 0.442 | 0.773
29 | KDFNKYVAYIE [KDM4B_Y31] | 0.718 | 0.461 | 0.449 | 0.375 | 0.53 | 0.359 | 0.767 | 0.365 | 0.485 | 0.603 | 0.379 | 0.483 | 0.364 | 0.83 | 1.14 | 0.927
